Patent publication US20230272011A1 (AVACTA LIFE SCIENCES, published 2023)

Legend:
human serum albumin [1] = biological target: T1, human serum albumin (human, UniProt P02768 25-609); experiment: binding ELISA on coated HSA, pH 7.4
T1 construct: mature; Bought protein; biotinylated in the Octet and HTRF assays; also called HSA; HuSA
Procedure: After saturation with 5% PBS Casein pH 7.5, plates were washed and a dilution of AFFIMER® polypeptides or controls were incubated for 90 minutes. Plates were then washed, and a biotinylated polyclonal antibody anti-cystatin A (R&D Systems) was added for 1 hour. Plates were washed and AFFIMER® polypeptides were detected using streptavidin-HRP. After a last washing step, TMB was added for the development of the experiment and the plates were read at 450 nm.

human serum albumin [2] = biological target: T1, human serum albumin; experiment: BLI (Octet), biotinylated albumin on SA sensor, pH 6.0
Outline: (§1)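 Affinity is measured against albumin captured at 1 μg/ml on streptavidin tips, in PBS-T (0.01% Tween 20) plus 1% casein at the stated pH, at 25° C.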

cynomolgus serum albumin = biological target: T2, cynomolgus serum albumin (cynomolgus); experiment: as above
T2 construct: also called CSA; cyno serum albumin
Outline: as §1

mouse serum albumin = biological target: T3, mouse serum albumin (mouse, UniProt P07724 25-608); experiment: as above
T3 construct: also called MSA
Outline: as §1

T2 sequence (A2V9Z4 25-608): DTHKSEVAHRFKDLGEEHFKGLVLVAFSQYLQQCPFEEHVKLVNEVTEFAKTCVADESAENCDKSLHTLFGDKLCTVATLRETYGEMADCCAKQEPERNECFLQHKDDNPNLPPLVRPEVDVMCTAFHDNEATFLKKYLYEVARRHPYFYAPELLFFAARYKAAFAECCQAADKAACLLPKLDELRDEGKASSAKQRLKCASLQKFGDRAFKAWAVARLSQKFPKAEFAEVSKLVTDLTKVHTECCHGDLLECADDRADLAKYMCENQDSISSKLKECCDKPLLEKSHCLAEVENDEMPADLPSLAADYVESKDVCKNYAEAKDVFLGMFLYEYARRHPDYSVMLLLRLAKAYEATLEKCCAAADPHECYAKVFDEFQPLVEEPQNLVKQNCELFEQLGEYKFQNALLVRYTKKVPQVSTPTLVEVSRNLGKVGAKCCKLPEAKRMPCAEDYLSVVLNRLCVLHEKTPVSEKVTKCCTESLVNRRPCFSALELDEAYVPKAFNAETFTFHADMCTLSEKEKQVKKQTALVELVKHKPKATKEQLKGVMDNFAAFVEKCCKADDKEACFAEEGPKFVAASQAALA
T3 sequence (P07724 25-608 limits assumed): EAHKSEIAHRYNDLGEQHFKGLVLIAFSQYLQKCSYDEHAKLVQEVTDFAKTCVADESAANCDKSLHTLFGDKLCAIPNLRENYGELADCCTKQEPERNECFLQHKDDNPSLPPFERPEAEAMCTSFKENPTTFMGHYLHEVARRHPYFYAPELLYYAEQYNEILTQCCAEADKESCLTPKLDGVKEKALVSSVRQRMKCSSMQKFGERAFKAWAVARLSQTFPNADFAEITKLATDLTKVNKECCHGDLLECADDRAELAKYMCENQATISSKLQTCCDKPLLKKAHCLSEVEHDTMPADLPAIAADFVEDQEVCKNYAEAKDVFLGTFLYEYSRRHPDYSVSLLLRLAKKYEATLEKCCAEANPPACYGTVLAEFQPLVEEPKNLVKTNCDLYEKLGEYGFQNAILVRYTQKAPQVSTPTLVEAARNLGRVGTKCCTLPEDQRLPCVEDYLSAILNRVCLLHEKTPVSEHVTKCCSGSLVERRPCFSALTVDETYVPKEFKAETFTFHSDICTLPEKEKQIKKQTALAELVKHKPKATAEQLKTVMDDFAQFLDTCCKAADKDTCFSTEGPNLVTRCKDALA

B1: HSA-41 (designed binder)
chain: MIPRGLSEAKPATPEIQEIVDKVKPQLEEKTNETYGKLEAVQYKTQVLANFFQRRWPGSTNYYIKVRAGDNKYMHLKVFNGPWKFRNTDRGADRVLTGYQVDKNKDDELTGFHHHHHH
notes: also called HSA-41 parent; HSA-41 AH parent
Human serum albumin [1]
  EC50: 0.04 nM
Human serum albumin [2]
  Kd: 7.1 nM
Cynomolgus serum albumin
  Kd: 105 nM
Mouse serum albumin
  Kd: 95.2 nM
